Results on 1 substance are retold here after patent publication US20240408227A1.

The test deals with recombinant human TfR1 (human) (UniProt P02786). The test can be described thus: SPR array (Carterra LSA), IgG captured, TfR as analyte, 25 C.
Chain of recombinant human TfR1 (human) (P02786 89-760 limits assumed): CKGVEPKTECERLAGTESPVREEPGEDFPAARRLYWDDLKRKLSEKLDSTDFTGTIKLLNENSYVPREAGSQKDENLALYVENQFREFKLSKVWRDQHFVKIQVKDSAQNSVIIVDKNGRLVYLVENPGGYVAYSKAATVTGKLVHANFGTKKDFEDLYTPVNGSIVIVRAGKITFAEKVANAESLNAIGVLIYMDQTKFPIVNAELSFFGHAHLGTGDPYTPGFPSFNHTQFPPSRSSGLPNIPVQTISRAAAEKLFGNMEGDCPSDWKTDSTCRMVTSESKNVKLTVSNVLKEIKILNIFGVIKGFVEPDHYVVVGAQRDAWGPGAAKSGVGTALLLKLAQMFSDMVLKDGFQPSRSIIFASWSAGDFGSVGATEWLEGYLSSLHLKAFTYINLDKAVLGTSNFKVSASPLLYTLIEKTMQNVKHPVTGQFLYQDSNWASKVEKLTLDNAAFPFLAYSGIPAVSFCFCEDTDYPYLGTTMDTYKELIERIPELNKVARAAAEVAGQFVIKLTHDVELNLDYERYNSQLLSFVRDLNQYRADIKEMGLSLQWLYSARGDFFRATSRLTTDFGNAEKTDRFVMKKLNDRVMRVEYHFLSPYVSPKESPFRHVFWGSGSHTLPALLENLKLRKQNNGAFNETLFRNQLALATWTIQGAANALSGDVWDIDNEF

A word on the Kd: it is the free concentration of one partner at which half of the binding sites on the other are occupied at equilibrium, for simple one-to-one binding. Broadly, the kon is a measure of how fast the partners come together. In the case of “OKT9 control anti-TfR1 antibody (mouse IgG)”, the Kd was determined as 536 pM and the kon was determined as 774000 M⁻¹ s⁻¹.
